Measured values from patent US12493026B2, “Tissue engineered 3D models for cancer metastasis” (The Board of Trustees of the Leland Stanford Junior …, priority 2019, dated 2025).

Tests used:
[1] = tested on: breast cancer cell-bone metastasis; details: mouse models; cited from earlier work
[2] = tested on: MDA-MB-231 breast cancer cells; experiment: Breast cancer cell invasion into tissue engineered bone in spatially patterned 3D coculture (fluorescence imaging); type: cell-based; details: 1 μg/mL PTH for 6 hours every 48 hours; MDA-MB-231 coculture, 7 days; FIG. 7(A)
Description: To mimic the microanatomical structures of breast cancer invasion into bone through bone marrow/long bone interface (FIGS. 1A and 1B), a “doughnut shape” 3D co-culture model was developed with mesenchymal stem cell (MSC)-formed tissue engineered bone in the outside ring, and breast cancer cells in the center (FIG. 1C). To facilitate imaging the two cell populations, human MSCs were fluorescently labelled red and breast cancer cells were labeled green (GFP). Gelatin μRBs were synthesized as previously reported. Freeze-dried μRBs were rehydrated in PBS containing 0.05% lithium phenyl-2,4,6-trimethylbenzoylphosphinate photoinitiator. […] Breast cancer invasion into tissue engineered bone was monitored using fluorescence imaging at the interface between the outer and inner disks.
Cocultures of MDA-MB-231 and tissue engineered bone were developed as previously described. […] Breast cancer cell invasion into tissue-engineered bone was monitored using fluorescence microscopy every other day for 7 days. Bone mineralization was monitored using X-ray microcomputed tomography (GE CT120) with setting of 100 kV X-ray voltage, 500 μA current, 50 μm voxel resolution and continuous 360° rotation scanning. Reconstructed 3D μCT images were analyzed for changes in bone mineral density using Parallax Microview. […]

tissue engineered bone [3] = experiment: Bone mineral density of tissue engineered bone in 3D coculture (μCT); type: cell-based, human; details: 1 μg/mL PTH for 6 hours every 48 hours, FIG. 8(C)
Procedure: Bone mineral density was evaluated over 14 days by comparing tissue engineered bone cultured with (+BrCa) and without (−BrCa) breast cancer cells. Cocultures of tissue engineered bone with MDA-MB-231 were generated as described previously and cultured in EMEM GM for 14 days. Bone mineralization was monitored using X-ray microcomputed tomography (GE CT120) with setting of 100 kV X-ray voltage, 500 μA current, 50 μm voxel resolution and continuous 360° rotation scanning. Reconstructed 3D μCT images will be analyzed for changes in bone mineral density using Parallax Microview.
(§1) Cocultures of MDA-MB-231 and tissue engineered bone were developed as previously described. Upon starting the coculture, scaffolds were treated with 1 μg/mL of parathyroid hormone (PTH) or PBS control for 6 hours every 48 hours. Breast cancer cell invasion into tissue-engineered bone was monitored using fluorescence microscopy every other day for 7 days. Bone mineralization was monitored using X-ray microcomputed tomography (GE CT120) with setting of 100 kV X-ray voltage, 500 μA current, 50 μm voxel resolution and continuous 360° rotation scanning. Reconstructed 3D μCT images were analyzed for changes in bone mineral density using Parallax Microview. Osteoblast cell proliferation was tracked over the culture period using bioluminescence imaging.

tissue engineered bone [4] = experiment: Breast cancer-induced bone resorption in 3D tri-culture model of osteoclasts, osteoblasts and breast cancer cells (μCT); type: cell-based; details: 14 days
Procedure: In order to assess the effect of breast cancer in promoting osteoclast activation and bone resorption, the bone mineral density of (1) tissue engineered bone alone (No BrCa), (2) tissue engineered bone+MDA-MB-231 breast cancer cells, and (3) tissue engineered bone+MCF-7 breast cancer cells were evaluated. Tissue engineered bone was developed as described previously. After 28 days in osteogenic media, a 2 mm diameter disk was cut out from the center of tissue engineered bone, leaving an empty hole in the center. Prior to introducing breast cancer cells, 1 million osteoclasts were seeded directly over tissue engineered bone and incubated for 1 hour to allow cells to attach. […] Bone mineralization was monitored using X-ray microcomputed tomography (GE CT120) with setting of 100 kV X-ray voltage, 500 μA current, 50 μm voxel resolution and continuous 360° rotation scanning. Reconstructed 3D μCT images were analyzed for changes in bone mineral density using Parallax Microview.
Validation was performed of a 3D tri-culture model that includes osteoclasts, osteoblasts, and breast cancer cells to mimic clinical outcomes effects of parathyroid hormone treatment on breast cancer patients.
Compared to the bi-culture model earlier (osteoblasts+breast cancer cells), this tri-culture model involves additional osteoclasts seeded on top of the scaffolds. […]

[5] = tested on: MDA-MB-231 breast cancer cells; experiment: Breast cancer cell proliferation in 3D coculture (bioluminescence imaging); type: cell-based; details: 1 μg/mL PTH for 6 hours every 48 hours, FIG. 7(B)
Description: To evaluate the effect of breast cancer cell aggressiveness in their invasion rate into bone, MDA-MB-231 breast cancer cells (more aggressive) were compared to MCF-7 breast cancer cells (less aggressive). Tissue engineered bone was generated as described previously. MDA-MB-231 and MCF-7 breast cancer cells were encapsulated into gelatin μRBs forming 2 mm diameter disks, which were introduced into the center of tissue-engineered bone and placed in EMEM growth media for 7 days. Breast cancer invasion into all groups was performed using fluorescence imaging at the interface between the outer and inner disks over 7 days. Cell proliferation was tracked over the culture period using bioluminescence imaging.
as §1, with “Osteoblast cell proliferation was tracked over the culture period using bioluminescence imaging.” left out

hMSC-derived osteoblasts = experiment: Osteoblast cell proliferation/survival in 3D coculture (bioluminescence imaging); type: cell-based, human; details: 1 μg/mL PTH for 6 hours every 48 hours, FIG. 8(A)
Procedure: as §1

B1: parathyroid hormone (protein, UniProt P01270 32-115, looked up)
Parathyroid hormone: SVSEIQLMHNLGKHLNSMERVEWLRKKLQDVHNFVALGAPLAPRDAGSQRPRKKEDNVLVESHEKSLGEADKADVNVLTKAKSQ
modifications: Parathyroid hormone
notes: parathyroid hormone; drug that reduces breast cancer-bone metastasis in vivo
breast cancer cell-bone metastasis [1]: specifically reduce
breast cancer cell invasion into tissue engineered bone [2]: significantly reduces
breast cancer cell-induced reduction in bone mineralization (bone mineral density) (tissue engineered bone [3]): prevents
breast cancer-induced bone resorption (bone loss) (tissue engineered bone [4]; continuous PTH treatment (cPTH)): does not reduce
breast cancer-induced bone resorption (bone loss) (tissue engineered bone [4]; intermittent PTH treatment (iPTH)): can reduce
breast cancer cell proliferation [5]: does not impact
osteoblast cell survival in the presence of breast cancer invasion (hMSC-derived osteoblasts): enhances
